Results on three molecules are retold here after paper PMC7195465, “Molecular mechanism of light-driven sodium pumping” (Nature Communications, 2020).

Holding throughout (assay): crystal structure; in meso (monoolein) crystals, 1.2 M sodium malonate pH 8.0, grown at 22 °C; pentameric form, space group C222_(1); data at 100 K and at room temperature
Data set [1] deals with KR2-H30A (Krokinobacter eikastus).
The target in data set [2] is KR2-D116N (Krokinobacter eikastus).
Data set [3] concerns the molecule itself.

Usually stoichiometry N stands for the number of molecules, sites or subunits per partner or assembly. KR2-H30A (natural protein) had a stoichiometry N in data set [1] of 5. KR2-D116N (natural protein) had a stoichiometry N in data set [2] of 5.

B1: light-driven sodium-pumping rhodopsin KR2 from Krokinobacter eikastus (natural protein)
chain: MTQELGNANFENFIGATEGFSEIAYQFTSHILTLGYAVMLAGLLYFILTIKNVDKKFQMSNILSAVVMVSAFLLLYAQAQNWTSSFTFNEEVGRYFLDPSGDLFNNGYRYLNWLIDVPMLLFQILFVVSLTTSKFSSVRNQFWFSGAMMIITGYIGQFYEVSNLTAFLVWGAISSAFFFHILWVMKKVINEGKEGISPAGQKILSNIWILFLISWTLYPGAYLMPYLTGVDGFLYSEDGVMARQLVYTIADVSSKVIYGVLLGNLAITLSKNKELVEANS
modifications: retinal covalently bound to the lysine residue of helix G via the Schiff base
notes: KR2, light-driven Na+-pumping rhodopsin of Krokinobacter eikastus; Pentamer in the crystals grown at pH 8.0; the construct is not described beyond 'KR2 expression plasmid'; also called KR2-WT; WT protein; source: E. coli SE1 (Staby Codon T7), purified (DDM solubilisation, Ni-NTA, SEC)
For the molecule B1, the “stoichiometry N” value in data set [3] was determined as 5.
